T1: CD228 protein on human melanoma SK-MEL-5 cells (human, UniProt P08582 20-709)
T1 construct: whole, on cells; Endogenous CD228 on the cell line; also called SK-MEL-5 cells (expressing CD228 proteins)
T1 sequence (looked up): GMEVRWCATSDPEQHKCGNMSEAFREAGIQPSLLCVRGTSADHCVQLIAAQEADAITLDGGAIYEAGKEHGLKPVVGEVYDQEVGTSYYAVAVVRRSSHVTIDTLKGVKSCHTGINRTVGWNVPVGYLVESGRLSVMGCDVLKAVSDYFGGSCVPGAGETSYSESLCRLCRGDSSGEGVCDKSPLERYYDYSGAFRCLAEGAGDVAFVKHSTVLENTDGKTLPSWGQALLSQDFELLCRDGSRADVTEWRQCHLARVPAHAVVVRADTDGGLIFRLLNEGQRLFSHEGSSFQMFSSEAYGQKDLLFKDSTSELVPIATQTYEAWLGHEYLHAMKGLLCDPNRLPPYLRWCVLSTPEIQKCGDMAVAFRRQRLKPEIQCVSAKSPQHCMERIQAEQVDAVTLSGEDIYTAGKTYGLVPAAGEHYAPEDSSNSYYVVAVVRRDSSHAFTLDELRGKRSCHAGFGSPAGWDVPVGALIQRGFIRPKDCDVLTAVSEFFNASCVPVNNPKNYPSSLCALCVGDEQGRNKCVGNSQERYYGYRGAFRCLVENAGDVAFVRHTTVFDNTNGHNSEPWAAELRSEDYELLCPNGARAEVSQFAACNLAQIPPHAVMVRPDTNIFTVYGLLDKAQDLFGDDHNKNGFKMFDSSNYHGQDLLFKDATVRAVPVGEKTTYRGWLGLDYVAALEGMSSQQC

T2: Human CD228 protein (human, UniProt P08582 20-708, limits assumed)
T2 construct: Recombinant protein made in CHO cells, purified over a Ni column; The printed entry begins with the leader (MRGPSG...) and ends with ten His; also called hCD228; CD228-His protein
T2 sequence: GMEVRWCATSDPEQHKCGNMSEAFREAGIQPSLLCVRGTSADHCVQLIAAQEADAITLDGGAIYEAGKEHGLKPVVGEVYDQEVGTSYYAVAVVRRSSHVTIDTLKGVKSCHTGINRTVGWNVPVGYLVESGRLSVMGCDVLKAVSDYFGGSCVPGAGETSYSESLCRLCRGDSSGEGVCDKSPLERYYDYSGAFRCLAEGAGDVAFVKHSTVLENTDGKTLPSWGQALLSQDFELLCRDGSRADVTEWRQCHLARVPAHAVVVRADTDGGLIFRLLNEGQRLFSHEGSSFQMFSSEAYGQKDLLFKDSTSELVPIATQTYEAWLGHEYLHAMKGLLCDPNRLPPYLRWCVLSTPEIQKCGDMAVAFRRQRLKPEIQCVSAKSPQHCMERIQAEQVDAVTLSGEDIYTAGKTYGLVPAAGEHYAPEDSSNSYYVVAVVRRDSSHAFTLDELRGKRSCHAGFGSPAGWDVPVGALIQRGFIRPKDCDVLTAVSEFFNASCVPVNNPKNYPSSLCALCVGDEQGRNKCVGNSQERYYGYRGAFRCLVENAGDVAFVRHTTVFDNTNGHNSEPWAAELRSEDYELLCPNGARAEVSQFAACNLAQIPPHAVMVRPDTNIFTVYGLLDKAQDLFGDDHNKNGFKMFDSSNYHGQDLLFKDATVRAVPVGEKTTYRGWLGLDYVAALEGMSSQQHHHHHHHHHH


Assays:
[1] = target: T1, CD228 protein on human melanoma …; assay: flow cytometry on SK-MEL-5 cells, fluorescent secondary antibody, MFI
Method: To a 96-well round-bottom plate, human melanoma SK-MEL-5 cells (ATCC, HTB-70) were added with a cell density of 7E4 cells/50 μL/well. The antibodies were serially diluted with an FACS buffer (PBS, Boster Biological Technology, Catalog No. PYG0021) and added to the 96-well round-bottom plate at 50 μL/well. The plate was then incubated at 4° C. for 1 h. The supernatant was discarded after centrifugation at 400 g for 4 min. The plate was washed once with FACS buffer, before a fluorescent secondary antibody (Jackson, 109545-008) at 100 μL/well was added. The mixture was incubated at 4° C. in the dark for 30 min and centrifuged at 400 g for 4 min. The supernatant was discarded. The cells were washed once with FACS buffer, resuspended in FACS buffer at 100 μL/well, and loaded on a flow cytometer (ACEA Pharma, NovoCyte 2060) for analysis. […] The isotype reference antibody in FIG. 4 is an irrelevant antibody targeting other antigens with constant regions similar to the experimental anti-CD228 antibodies but with different variable regions.

[2] = target: T2, Human CD228 protein; assay: Octet competition on His-chip CD228; competitor: CA149
Method: (§1) CD228 proteins were immobilized on His chips at 10 μg/mL with a threshold of 0.5 nm. The first CD228 antibody (30 μg/mL) was immobilized, and the competitive binding of the second CD228 antibody (30 μg/mL) was analyzed. The Octet 8K system was used to analyze the response of antibody 2 and to determine whether antibody 1 and antibody 2 were in competition.

[3] = target: T2, Human CD228 protein; assay: Octet competition on His-chip CD228; competitor: BA352
Method: as §1
(§2) The final competition analysis was conducted using the following calculation method: 1—response value/blank value.

[4] = target: T2, Human CD228 protein; assay: ELISA, plate coated with human CD228 protein
Method: Human CD228 protein (prepared by Boan, 20201014, SEQ ID NO: 41) was diluted to 0.1 μg/mL with a carbonate-buffered saline (hereinafter referred to as CBS) at pH 9.6. Microplates were coated with the protein at 100 μL/well, and incubated at 4° C. overnight. After washing, the microplates were blocked with skimmed milk powder. The plates were washed, before antibodies diluted with PBST (phosphate-buffered saline, Solarbio P1010, +0.05% Tween20) were added at 100 μL/well. The diluted antibodies were intact antibodies comprising Fc, Fab and the constant region serially 3-fold diluted from 0.1 μg/mL to 8 concentrations with PBST. After washing the plates, goat anti-human IgG (H+L)/HRP (diluted at 1:5000, KPL, 474-1006) was added at 100 μL/well, and the plates were incubated at 37° C. for 1 h. After washing the plates, TMB (Beijing Makewonderbio, 1001) was added at 100 μL/well for chromogenesis, and after 10 min, 50 μL of 2 M H₂SO₄ was added to stop the chromogenesis. OD450 was measured on a microplate reader. The antibody hL49 targeting CD228 from Seagen was used as a reference antibody in this study and the following studies.

[5] = target: T2, Human CD228 protein; assay: Octet competition on His-chip CD228; competitor: CA67
Method: as §1, §2

Binder	EC50 [1] [µg/mL]	Octet response value [2]	competition (1-response value/blank value) [3] [%]	EC50 [4] [µg/mL]	competition (1-response value/blank value) [5] [%]
CA149 (antibody, human IgG1, kappa, V domains shown, Intact IgG1; also called CA149 antibody) VH: EVQLVESGGGVVQPGRSLRLSCAASGFTFSSYAMHWVRQAPGKGLEWVAVISFDGSNKYYTDSVKGRFTISRDNSKNTLYLQMNSLRAEDTAVYYCAREVPYYYGSGPFDYWGQGTLVTVSS VL: EIVLTQSPATLSVSPGERATLSCRASQSVSSNLAWYQQKPGQAPRHLIDGASSRASGIPDRFSGSGSGTDFTLTISRLEPEDFAVYYCQQYGSSPPFTFGPGTKVDIKR	0.135	0.0039	-12	0.0036	98
CA185 (antibody, human IgG1, kappa, V domains shown, Intact IgG1) VH: EVQLVESGGGVVQPGRSLRLSCAASGFTFSSYAMHWVRQAPGKGLEWVAVISYDGSNKYYADSVKGRFTISRDNSKNTLYLQMNSLRAEDTAVYYCAREVPYYYGSGPFDYWGQGTLVTVSS VL: EIVLTQSPGTLSLSPGERATLSCRASQSVSSSSLAWYQQKPGQAPRHLIDGASSRASGIPDRFSGSGSGTDFTLTISRLEPEDFAVYYCQQYGSSYTFGQGTKVDIKR	0.123	0.0089	-17	0.0039	99
BA352 (antibody, human IgG1, kappa, V domains shown, Intact IgG1) VH: EVQLVESGGGVVQPGRSLRLSCAASGFTFSSYAMHWVRQAPGKGLEWVAVISYDGSNKYYADSVKGRFTISRDNSKNTLYLQMNSLRAEDTAVYYCARGPYLAAAGTALTFDIWGQGTMVTVSS VL: DIQMTQSPSAMSASVGDRVTITCRASQGINNYLAWFQQKPGKVPKRLIYAASSLQSGVPSRFSGSGSGTEFTLTISSLQPEDFATYYCLQHNSYPFTFGPGTKVDIKR	0.152	0.416	94	0.0061	-4
CA13 (antibody, human IgG1, kappa, V domains shown, Intact IgG1 from fully human antibody-transgenic mice) VH: EVQLVESGGGVVQPGRSLRLSCAASGFTFSSYAMHWVRQAPGKGLEWVAVISYDGSNKYYADSVKGRFTISRDNSKNTLFLQMNSLRAEDTAVYYCARDVYHYGSRSPYYYGMDVWGQGTTVTVSS VL: DIVMTQSPSSLSASVGDRVTITCRASQGISNYLAWFQQKPGKVPKLLIYAASTLQSGVPSRFSGSGSGTDFTLTISSLQPEDVATYYCQKYNSAPFTFGPGTKVDIKR	0.083	-0.0059	-9	0.0032	100
CA67 (antibody, human IgG1, kappa, V domains shown, Intact IgG1) VH: EVQLVESGGGVVQPGRSLRLSCAASGFTFSSYAMHWVRQAPGKGLEWVAVISYDGSNKYYADSVKGRFTISRDNSKNTLYLQMNSLRAEDTAVYYCARDVYHYGSRSPYYYGMDVWGQGTTVTVSS VL: DIQMTQSPSSLSASVGDRVTITCRASQAISNYLAWYQQKPGKVPKLLIYAASTLHPGVPSRFSGSGSGTDFTLTISSLQPEDVATYYCQKYNSAPFTFGPGTKVDIKR	0.096	-0.012	-8	0.0038	102

The next lines start with the values.

EC50 [1] [µg/mL]	Octet response value [2]	competition (1-response value/blank value) [3] [%]	EC50 [4] [µg/mL]	competition (1-response value/blank value) [5] [%]	Binder
0.195	0.435	55	0.0278	-7	reference antibody hL49 (antibody, human IgG1, kappa, V domains shown, also called H149; hL49 analogy) VH: QVQLQESGPGLVKPSETLSLTCTVSGDSITSGYWNWIRQPPGKGLEYIGYISDSGITYYNPSLKSRVTISRDTSKNQYSLKLSSVTAADTAVYYCARRTLATYYAMDYWGQGTLVTVSS VL: DFVMTQSPLSLPVTLGQPASISCRASQSLVHSDGNTYLHWYQQRPGQSPRLLIYRVSNRFSGVPDRFSGSGSGTDFTLKISRVEAEDVGVYYCSQSTHVPPTFGQGTKLEIKR
0.081	-0.0041	-5	0.0043	99	CA518 (antibody, human IgG1, kappa, V domains shown, Intact IgG1) VH: EVQLVESGGGVVQPGRSLRLSCAASGFTFSSYAMHWVRQAPGKGLEWVAVISYDGSNKYHADSVKGRFTISRDNSKNTLFLQMNSLRAEDTAVYYCVRDVYHYGSRSPYYYGMDVWGQGTTVTVSS VL: DIQMTQSPSSVSASVGDRVTITCRASQGISSWLAWYQQKPGKAPKLLIYAASSLQSGVPSRFSGSGSGTDFTLTISSLQPEDVATYYCQKYNSAPFTFGPGTKVDIKR

From patent US20250121082A1 (SHANDONG BOAN BIOTECHNOLOGY, published 2025)
